Measured values published in patent US20220389119A1.

Target: WT Fc chain lacking a warhead
Experiment: co-expression in HEK 293 EBNA1, protein A purification, non-reduced micro-capillary gel electrophoresis; 50 kDa = Fc homodimer lacking warheads

WT Fc chain lacking a warhead
NR-mCE 50 kDa (%): 21.4%
